# Measurements from article PMC5693944.
# Tests used:
# Test in all cases: SEC-MALS
# [1] = target: Ml1 protein from Mesorhizobium loti (Mesorhizobium loti)
# [2] = target: Ml2 protein from Mesorhizobium loti (Mesorhizobium loti)
# [3] = target: MucR from Brucella abortus (Brucella abortus 2308)
substance,measurement,setting,value
Ml1 protein from Mesorhizobium loti (natural protein),stoichiometry N,[1],10.4
Ml2 protein from Mesorhizobium loti (natural protein),stoichiometry N,[2],9.96
MucR from Brucella abortus (natural protein),stoichiometry N,[3],10.4
